Data on three molecules can be found in US20190263889A1 (ONCOC4, published 2019).

To fix the notation:
B2: human B7-1Fc fusion protein (Fc fusion, UniProt P33681 35-242, looked up, not shown: a dimerising Fc or GST)
chain: VIHVTKEVKEVATLSCGHNVSVEELAQTRIYWQKEKKMVLTMMSGDMNIWPEYKNRTIFDITNNLSIVILALRPSDEGTYECVVLKYEKDAFKREHLAEVTLSVKADFPTPSISDFEIPTSNIRRIICSTSGGFPEPHLSWLENGEELNAINTTVSQDPETELYAVSSKLDFNMTTNHSFMCLIKYGHLRVNQTFNWNTTKQEHFPDN
notes: Used biotinylated in ELISA; also called B7-1 Ig; B7-1 Ig fusion protein

In one experiment the target is T1, human IgG1-Fc control (human, UniProt P01857-1 99-330 = IgG part, limits assumed).
T1 construct: domain: Fc; Negative control coated on plates; also called Control IgG1-Fc; hIg-Fc
The experiment is described as follows: ELISA, summary grade.

Experiment [1] concerns the target T2, CTLA-4Fc mutant protein M6 (human (murine residues substituted)).
T2 construct: also called Mutant 6
The experiment is described as follows: ELISA; binder 1000 ng/ml on coated target. A general note: An ELISA detects its analyte on a solid surface through an enzyme-linked reagent.

For experiment [2], the target named is T3, CTLA-4Fc mutant protein M8 (human (murine residues substituted)).
T3 construct: also called Mutant 8
The experiment is described as follows: ELISA; binder 1000 ng/ml on coated target.

Experiment [3] concerns the target T2, CTLA-4Fc mutant protein M6. The experiment in a line: ELISA; binder 10 ng/ml on coated target.
Experiment [4] addresses B2. The experiment in a line: ELISA, summary grade.

B1: human B7-2Fc fusion protein (Fc fusion, UniProt P42081 24-245, looked up, not shown: a dimerising Fc or GST)
chain: APLKIQAYFNETADLPCQFANSQNQSLSELVVFWQDQENLVLNEVYLGKEKFDSVHSKYMGRTSFDSDSWTLRLHNLQIKDKGLYQCIIHHKKPTGMIRIHQMNSELSVLANFSQPEIVPISNITENVYINLTCSSIHGYPEPKKMSVLLRTKNSTIEYDGVMQKSQDNVTELYDVSISLSVSFPDVTSNMTIFCILETDKTRLLSSPFSIELEDPQPPPDH
notes: Used biotinylated in ELISA; also called hB7-2Fc; CD86
With B1, the binding result in the experiment with human IgG1-Fc control is “no binding”.
In the case of B2, the figures for the OD450 in experiment [1], in experiment [2] and in experiment [3] were 3.41 OD450, 3.63 OD450 and 0.279 OD450, respectively. For the same molecule, the binding result in the experiment with human IgG1-Fc control is “no binding”.

B3: CTLA-4Fc mutant protein M16 (Fc fusion)
chain: IQVTQPSVVLASSRGIASFVCEYASPGKATEVRVTVLRQADSQVTEVCAATFTEKNTVGFLDDSICTGTFNESRVNLTIQGLRAMDTGLYICKVELMYPPPYFVGMGNGTQIYVIDPEPCPDSDQEPKSSDKTHTSPPSPAPELLGGSSVFLFPPKPKDTLYITREPEVTCVVVDVSHEDPEVKFNWYVDGVEVHNAKTKPREEQYNSTYRVVSVLTVLHQDWLNGKEYKCKVSNKALPAPIEKTISKAKGQPREPQVYTLPPSRDELTKNQVSLTCLVKGFYPSDIAVEWESNGQPENNYKTTPPVLDSDGSFFLYSKLTVDKSRWQQGNVFSCSVMHEALHNHYTQKSLSLSPGK
Consider B3, for which, in experiment [4], the binding result is listed as “binds”.
